1 protein from PMC8986121 can be followed below.

For one data set, the target named is Glu59. Nature of the data set: NMR. The note with it: 300 K, not stated (50 mM phosphate buffers), 50 mM phosphate buffers at different pH, micelle-bound.
A further data set concerns the target Glu49. Nature of the data set: NMR. The note with it: 300 K, not stated (50 mM phosphate buffers), 50 mM phosphate buffers at different pH, micelle-bound.
Where [1] appears, read: L2 peptide free (no L1 or M peptide).
Where [2] appears, read: L2 peptide in the presence of the GldL TMH1 (L1) and GldM TMH (M) peptides at 1:1:1 molar ratio.

Consider KKVMLSIGLLTEALIFALSAFEPVKK, for which the pKa came out at 5.65 ± 0.13 in the data set with Glu59 (setting [1]), 5.83 ± 0.02 with Glu59 (setting [2]), 5.54 ± 0.04 with Glu49 (setting [1]) and 5.83 ± 0.02 with Glu49 (setting [2]).

Broadly, the pKa is the negative logarithm of the acid dissociation constant.
